# Laboratory results taken from the DeepSol protein solubility set.
# Test: soluble on expression in E. coli; label from the status in PepcDB or PDB records
row,Sequence,soluble on expression in E. coli
1,MNEIMLETKNLCKTFRQQSVVQNISLSVPKYAIYGLLGPNGAGKSTTLKMITGMLIPTSGEIYFDGHKWTRHDLHSIGALIDSPPLYENLTARENLQVRTTVLGLPKSRIDEVLHVVELENTEKKKAKDFSMGMKQRLGIAIALLNHPKFLILDEPMNGLDPFGIQELRKLILSFPGKGITVILSSHILSEVSQIADHVGIISGGVLGYQGKLNKNDDLEDLFVQVAGKYRREA,not soluble
2,MNEKELADSVFGGLMAKAMGKMVHESEICPLVDQIEGKGQTNEELQGLRLSLSDLLLRHPDKFINCGNRNWRLNQNNHAFQQLAESISDKKSGKGGKRSARGGSNLPSFNRARSGGIPRNHNQTHGFRQSAPAHRGHHRPPAGNHGSSFRPNLNISQPNPSNDYSKMTGLHYPVSRNVLASNNGSNSRFSNQPPRREDHHEKMIMRTPYRDPSPRRGNNYGDIRGRPDSRDGYNGDRDSTRYSSPRRNEQPGRPSSRGSNISDYSQFSSDTNAESNTERRSRPDASSPDLADLARRFNSSSINVQPQPLESVASSDVLSKKIAKAVRKIMKKLNEGEKLSLENLFDEIERKNKILIPGKNGKEKEDFLKDLKKIMPKLLSALTIDTETGDLTWNEAAVTTDSPIHEYMEDDLHYYVVDYVKMLDKARFRVTDEAERLSNATGVRMERTCEKLTYVLFITFEGEYRYASGSKTEVLKISKITTVGDAPEFYQTSFEHKIFENVPANALVKCGIVRYQNVQKFAVRPEEYIKPYEKMNQEIQDFMSQIRNEKSVPFEMWRPNHACLVQLNDSTTILKWSRAMIIKIETQLIFLFILDSGFRKVVPSSDLRLMPQKFAKLPPFAIPCTLDESEDDKDNIEFGGKEYLSNGPGNLSVTCSGAATASDGILTYPIKLFSTCHGGPLTNIKDVFI,not soluble
3,MNEKVFRDPVHNYIHIDNPLIYDLINTKEFQRLRRIKQVPTTAFTFHGAEHSRFSHCLGVYEIARRVTAIFEEKYADIWNKDESLVTMTAALLHDIGHGAYSHTFEVLFHTDHEAFTQEIITNPETEINAILVRHAPDFPDKVASVINHTYPNKQVVQLISSQIDCDRMDYLLRDSYFSAANYGQFDLMRILRVIRPVEDGIVFEHSGMHAVEDYIVSRFQMYMQVYFHPASRAVELILQNLLKRAQHLYPEQQAYFQKTAPGLIPFFEKKANLADYIALDDGVMNTYFQVWMASEDHILSDLASRFINRKILKSVTFDQDSQGELERLRQLVESVGFDPDYYTGIHINFDLPYDIYRPELENPRTQIEMMQKDGSLAELSQLSPIVKALTGTTYGDRRFYFPKEMLELDDLFAPSKETFMSYISNGHFHFSQ,not soluble
4,MNELREKDESYRSFLLLSAISSEEPLSQREIARQVGIALGLVNSYLKHLVDKGFVRIKSFPRNRYAYLLTPRGLAEKSRLAYEHLSSFTTLFRVARQDYLALFRALKTQGVGRVAFCGVDEVAEIAYLSLREVGLELALVMDQATDGREFFGKPVVSIPHGLLAGNHHIVITTFKRREALREELLQRGVASELLHQAGEPAGETQSIREEHP,not soluble
5,MNENDGKNSAEKHNNSQDEGSIQPDKTQLDDVADDAEKKSEKSSNCMIWSQNVLKKAKISNMTREFRNNKEYKPNVTTSISEKMMDKNRYRHIFCGDDNRVVLKERDPSNDYIHASWMVMPDGFQFISTQGPIKNTIADFWHMVYTEKCHVIVMLCQYIEEDQEKCQRYFSDTSEKEYGDYRVKVVEKTVELWNPVKVTGIQVQKKNCPTKHMVYHYFYYDWHDQVAPLDPAPMIKMYKAVLNKSSSKPIVVHCSAGVGRTSTFVGIYLSQIMIRENSSVDMVEILKRLRTMRLGAVQSQLQYVYLVVLMIELFIDDKIIKRNANYESLLKKYADVTRKVTAAIMEEEEKRRQRKKREEEKEKEQEKESPATKEEKKKENGLKTNRQRDNREAPSKPPRKNPEELARSKLQGPRKLTLKNRDGNAEEPTAKDNEERSTAEDKSKNRQKSVYVKMPLSSKEKGSKHERAKQGARKNAARKAKKKPSVTGNY,not soluble
6,MNEQIRTILAEDGTKTSKIRKLLLLGLTHREIADLVTRGNRGFVWNVYKRMRDEGLIVSAGTPTATTTPELDYSFRRKFGVEIEAYNCTCQRLVRELTEAGIEVASERYNHDLRPHWKLVTDSSLNGNDTFELVSPILEGEDGLEKLERVCWVLDSCNVKINGSCGLHVHMNAEDFNITTWRNLLLSYKHAEAEIDKFMPASRRGGSNTYCGSLIQFPDERIRSARNIRELQGLFPSRYMKVNLQAYSRHRTVEFRQHSGTISFTKIENWVCFLDRMITFASVGSLPAGIRLEDFPFLGEKQKLYYKLRTKKLAV,not soluble
7,MNERLKEKLAVLPEQPGCYLMKDKHGTVIYVGKAKSLKERVRSYFTGTHDGKTQRLVEEIADFEYIVTSSNAEALILEMNLIKKHDPKYNVMLKDDKSY,soluble
8,MNETKVLIEKITEGIQEKKGKNIVIADLTNIDDTICKYFVICQGNSPSQVIAIVDSIKEFTRKGAGTKPSAIDGQRNAEWVAMDFSDVLVHVFLPEARNFYNLEHLWADAKLTTIPDID,soluble
9,MNETPTRVYAEIDLDAVRANVRALRARAPRSALMAVVKSNAYGHGAVPCARAAQEAGAAWLGTATPEEALELRAAGIQGRIMCWLWTPGGPWREAIETDIDVSVSGMWALDEVRAAARAAGRTARIQLKADTGLGRNGCQPADWAELVGAAVAAQAEGTVQVTGVWSHFACADEPGHPSIRLQLDAFRDMLAYAEKEGVDPEVRHIANSPATLTLPETHFDLVRTGLAVYGVSPSPELGTPAQLGLRPAMTLRASLALVKTVPAGHGVSYGHHYVTESETHLALVPAGYADGIPRNASGRGPVLVAGKIRRAAGRIAMDQFVVDLGEDLAEAGDEAVILGDAERGEPTAEDWAQAAHTIAYEIVTRIGGRVPRVYLGGLEHHHHHH,soluble
10,MNFDLFADEASRRWTETLAPGAVILRGHAYDDAPALLAALQTVIACAPLRNMITPGGFVMSVAMSNCGQLGWVTDEQGYRYTSHDPLSGEAWPAMPEAFSLLAKQAASEAGFADFEPDACLINRYDVGTRMSLHQDKNERDFHQPIVSVSLGLSATFLFGGMVRSDKAQRVPLTHGDVVVWGGESRLYFHGILPLKSGAVPEGMPDECRFNLTFRKAGLEHHHHHH,soluble
11,MNFETVIGLEVHVELKTKSKIFSSSPNAFGAPPNTQTNVIDLGYPGVLPVLNRQAVEFAMKAAMALNCEIATETKFDRKNYFYPDNPKAYQISQYDQPLGKNGWIEIEVNGKKKKIGITRIHLEEDAGKLTHTGDGYSLVDFNRQGTPLIEIVSEPDIRSPEEAYAYLEKLKAIIQYTGVSDCKMEEGSLRCDANISLRPIGSDKFGTKTELKNLNSFNFVRMGLEYEAKRQEKILLSGGVIRQETRRFDEATKTTVLMRVKEGSEDYRYFPEPDLVMLYIDDEWKERVRASIPELPDARRKRYIEEWGLPEYDAKVLTLTKEMADFFEATVANGADPKLASNWLMVEVSGYLNAEQKELHDIALTPESLAGMIKLIQDGTISSKIAKKVFKELVEHGGDPERIVKEKGLVQISDEGALRKIVLEVLDANPQSVEDYKNGKDRALGFLVGQVMKATKGQANPPLVNKLLVEEIGKR,not soluble
12,MNFHFTLDNDRKRRRSLSIDIDINFNDKAPGTSSDNEQRAPKRRADEEAVNAVPKNLLTTSSTFARAVIPAAPAISSANNKMAPQSVTATAKTTTNRGKVSGEGEYQLIKNEVLCSPYGNQYEVLEFLGKGTFGQVVKAWKKGTSEIVAIKILKKHPSYARQGQIEVSILSRLSNENSEEFNFVRAFECFNHKSHTCLVFEMLEQNLYDFLKQNKFMPLPLNAIRPILFQVLTALLKLKSLGLIHADLKPENIMLVDPQQQPYRVKVIDFGSASHRSKAVTNTYLQSRYYRAPEIILGLPFNESIDMWSLGCVIAELFLGWPLYPGSSEYDQIRFIIQTQGLPPTSMLESASKLHRFFKEVKSESPNHTNVGGSYYRLKTVEEYEASSSTAKSKETRKYIFNVIDDISRVCYGFESDPVEHLCDRIDRQEFVDVLKKMLVLNPDFRITPAEGLESKFVTMTHINGYNFANYVHEAHKRMEICRKPGPAMATPYRAANVATPITPVEKPPAPKLQQPMIAVLPQLNQIAATNIPPVPTQPDLTNLMHHYSQMAAATGSAATAAQFFYQPLPPAPLFQYAQLHHPFAARPPHFLSLATPSHMVPQFVPVPIMDPSMLQGQWPPGAAQQFAVLANDIMRVPAPQGINQMFASTPQTFSLPQFLSSSIPSATTAFNGNAPNIPFPEENSSWALGTAAQQQQQQAQRAQSMINGNVKVKPLAAQPKKNSPAPSVITLSSDEDSNGAGSSNSGSTTRTGAVNPVRNDTLPMGNTIKTEDILVPPTTFDGQLPNLQYFPGSHLFDPKTVAGLLPNPFLDTSHIPRAFN,not soluble
13,MNFIFDIDGTICFDGCSIDSSIKQRLFKLRQANHNVIFASARPIRDLLPVIPEFADDTLIGGNGSIISKNGQIEIVSVINEHDISLIKKIIKKYQLSYIIDDKFNYASNLDSNNELYQRIDPDGKAQSLDMDEIRNPIKAILLNIDNKDFDMIAHQLVSQSHGIELIRHYSESYIDVTARGVDKYTTIQYILGTNSDYIAFGNDHNDVHMLEHASQGYFVTNQFIEHTSFFKNKNITVIDDTIYAICEVLDRYL,not soluble
14,MNHDIPALALGPQGEVMAHAIDACVHCGFCLPACPTYALLGDEMDSPRGRIVLMKEVLEGSLELEDAAPHLDRCLGCQGCVTACPSGVPYGELITSFRGWSEPQRERTPLDRAKRYAILKALPAPKLFSVAARVGQFAKPLAPALPAALKAPLDLLPEHVPAMQPQPRVTPARGQRRGRVAFLAGCAQQALTPNFNAATLRVLSRNGIEVVIPEGQGCCGAAALHTGARDEALRLVRANLAAFNPDEYDAILSNAAGCGAGLKEYPVVLHGLPDEAQAQAFAAKVQDISEYLAGLLRDGELAPLMPTREPVKVAYHDACHLAHAQGVRSAPRELLRAIPGVTLTEIPEGDLCCGSAGTYNLEQPELANQLGQRKAKNILGTQPDLIASGNIGCHTQIQSHVRRQGSPVPVMHTVEVLDLAYRGELLEHHHHHH,not soluble
15,MNIAALLSGGVDSSVVVHLLCEQGYKPTLFYIKIGMDGAEYMDCSAEEDIEMSTAIARKYGLSLEVVDLHKEYWENVAAYAIDKIKKGLTPNPDVMCNKLIKFGCFEQQVGKNFDFTATGHYATTIRQDGKTWLGTAKDPVKDQTDFLAQIDYLQVSKLMFPIGGLMKQEVREIASRAGLPSARRKDSQGICFLGKINYNDFVRRFLGEREGAIIELETGKKVGTHRGYWFHTIGQRKGLGLSGGPWFVIKKDVEENIIYVSHGYGVETQFGSEFRINDFHFITENPWKDAGKEIDITFKIRHTPEFTKGKLVQEEGGQFRILSSEKLQGIAPGQFGVIYDEEAGICVGSGEITRLEHHHHHH,soluble
16,MNIDTKYHGTVAVNEQDIVHFPHGLPGFADEKRFVLLPLADTPFVILQSVETPALGFVLIEPFSYFPTYEFELDEATVEQLDIESERDVAVYVILTVADPFHETTANLQAPVVINARKRFGKQVILANTPYKTKHRLFPEKVAT,not soluble
17,MNIFAILNHMGVFFKEEPVRQLHAALEKAGYEVVYPVDDKDLIKMIEMNPRICGVLFDWDKYSLELCERISQINEKLPVHAFANEQSTLDISLTDLRLNVSFFEYALGMADDI,not soluble
